The text below walks through data of patent publication US20020164657A1 (published 2002).

The target of this assay is T1, Aβ 1-42.
T1 construct: Obtained from Bachem, dissolved in 50% DMSO and used as the aggregated (insoluble) form; also called aggregated Aβ 1-42; beta-amyloid peptide 1-42
As to the kind of experiment: co-sedimentation with Aβ 1-42, SDS-PAGE densitometry.

T1 sequence (peptide, as listed by the source): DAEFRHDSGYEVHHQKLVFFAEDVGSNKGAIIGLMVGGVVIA
Experimental: Samples were centrifuged at 12,000×g in a micro centrifuge for 5 min. The supernatants were removed, and the pellets washed once with 40 mM Tris, pH 7.5, 10 mM MgCI₂, 1 mM DTT and centrifuged again. The pellets were resuspended in 100 μl buffer, electrophoresed on 12% SDS-PAGE next to the corresponding supernatant, and stained with Coomassie Blue R-250.

B1: N-terminal tau (M1-238S) (other)
chain: MAEPRQEFEVMEDHAGTYGLGDRKDQGGYTMHQDQEGDTDAGLKAEEAGIGDTPSLEDEAAGHVTQARMVSKSKDGTGSDDKKAKGADGKTKIATPRGAAPPGQKGQANATRIPAKTPPAPKTPPSSGEPPKSGDRSGYSSPGSPGTPGSRSRTPSLPTPPTREPKKVAVVRTPPKSPSS
notes: also called N-terminal tau domain (IM-238S)
For the molecule B1, the binding result is on record as “no binding”.
